# Patent US9879094B2, “Nucleic acid molecules encoding for BACE1 antibodies” (Genentech, Inc., priority 2010, dated 2018)
# B1: YW412.8.31: affinity matured form of YW412.8 anti-BACE1 antibody (antibody, V domains shown)
# VH: EVQLVESGGGLVQPGGSLRLSCAASGFTFLGYGIHWVRQAPGKGLEWVGWISPAGGSTDYADSVKGRFTISADTSKNTAYLQMNSLRAEDTAVYYCARGPFSPWVMDYWGQGTLVTVSS
# VL: DIQMTQSPSSLSASVGDRVTITCRASQDVSTAVAWYQQKPGKAPKLLIYSASFLYSGVPSRFSGSGSGTDFTLTISSLQPEDFATYYCQQFPTYLPTFGQGTKVEIK
# Experiments:
# [1] = tested on: Aβ1-40 and Aβ1-42 in hAPP transgenic mice; assay: hAPP transgenic mice, systemic (IP) dosing, Aβ levels; type: in vivo, mouse; details: 100 mg/kg IP, 3 doses Q4D
# Procedure: Briefly, 5-month old human APP-expressing mice were treated with 30 mg/kg or 100 mg/kg YW412.8.31 antibody or vehicle by intra-peritoneal injection every four days for a total of three doses (i.e., at days 1, 5, and 9). Animals were euthanized two hours post the final dose. Serum, plasma, and brains were harvested and processed. Plasma, cortex and hippocampus were analyzed for levels of soluble Aβ1-40 and Aβ1-42 using an Amyloid beta (Aβ) ELISA test kit per manufacture's instructions (The Genetics Company). Pharmacokinetic analysis was performed on serum and brain homogenates.
# [2] = Serum PK in BALB/C and BACE1 knock-out mice; type: in vivo, mouse
# Procedure: Additionally, PK data was obtained after dosing with YW412.8.31 anti-BACE1 antibody in wild-type and BACE1 knock-out mice. A single dose of anti-BACE1 (1 or 10 mg/kg) was delivered via IV injection to BALB/C mice. Serum PK was analyzed out to 21 days post-dose.
# Total anti-BACE1 antibody concentrations in mouse serum and brain samples were measured as follows. Antibody concentrations in mouse serum and brain samples were measured using an enzyme-linked immunosorbent assay (ELISA). NUNC 384 well Maxisorp immunoplates (Neptune, N.J.) were coated with F(ab′)2 fragment of donkey anti-human IgG, Fc fragment specific polyclonal antibody (Jackson ImmunoResearch, West Grove, Pa.) overnight at 4° C. Plates were blocked with phosphate-buffered saline (PBS) containing 0.5% bovine serum albumin (BSA) for 1 hour at room temperature the next day. Each antibody (Control IgG and anti-BACE1) was used as a standard to quantify the respective antibody concentrations. […] Bound antibody was detected with horseradish peroxidase conjugated F(ab′)2 goat anti-human IgG, Fc specific polyclonal antibody (Jackson ImmunoResearch). […] Absorbance was measured at a wavelength of 450 nm with a reference of 630 nm on a Multiskan Ascent reader (Thermo Scientific, Hudson, N.H.). Concentrations were determined from the standard curve using a four-parameter non-linear regression program. […]
molecule,measurement,setting,value
B1,reduction of Aβ1-40 and Aβ1-42 in the brain,[1],15-22%
same,reduction of cortical Aβ1-40 and Aβ1-42 (trend),[1],12-18%
same,reduction of hippocampal Aβ1-40 and Aβ1-42,[1],13-22%
same,serum PK kinetics,"[2]; 1 or 10 mg/kg single IV, BALB/C mice, to 21 days",non-linear
same,serum PK kinetics,"[2]; single dose, BACE1−/− mice",linear PK
